For the assay, the target named is Plutella xylostella tachykinin receptor (PxTKR) (Plutella xylostella).

Ends that are not written are not given here.

As for “Plutella xylostella tachykinin peptide 3 (PxTK3)”, the EC50 of the cAMP response (cAMP-Glo assay) of HEK293 cells stably expressing PxTKR, peptide from 10 pM to 100 μM came out at 87.7 nM. On to APSGFLGMR (ends and bridges not checked) [Plutella xylostella tachykinin peptide 1 (PxTK1)], for which the EC50 of the cAMP response (cAMP-Glo assay) of HEK293 cells stably expressing PxTKR, peptide from 10 pM to 100 μM amounted to 32 nM.
